Test results reported in paper PMC7486707 (Proceedings of the National Academy of Sciences of the …, 2020).

Target: T1, STM-His6 (SHOOT …) (Arabidopsis thaliana, UniProt Q38874 1-382)
T1 sequence (looked up): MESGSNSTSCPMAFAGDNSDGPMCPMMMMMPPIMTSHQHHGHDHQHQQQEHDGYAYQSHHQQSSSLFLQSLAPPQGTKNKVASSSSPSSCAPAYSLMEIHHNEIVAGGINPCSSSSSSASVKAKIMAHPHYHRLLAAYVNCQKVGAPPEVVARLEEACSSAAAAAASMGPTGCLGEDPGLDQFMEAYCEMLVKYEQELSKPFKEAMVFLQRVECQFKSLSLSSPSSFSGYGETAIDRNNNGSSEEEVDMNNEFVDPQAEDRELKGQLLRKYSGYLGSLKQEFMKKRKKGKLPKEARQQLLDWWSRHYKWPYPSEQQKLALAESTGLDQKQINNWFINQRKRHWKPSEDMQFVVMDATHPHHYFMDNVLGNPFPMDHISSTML
Assay: pull-down

binding result: binds
B1: GST-WUS (WUSCHEL) (natural protein, Arabidopsis thaliana, UniProt Q9SB92 1-292, looked up)
chain: MEPPQHQHHHHQADQESGNNNNNKSGSGGYTCRQTSTRWTPTTEQIKILKELYYNNAIRSPTADQIQKITARLRQFGKIEGKNVFYWFQNHKARERQKKRFNGTNMTTPSSSPNSVMMAANDHYHPLLHHHHGVPMQRPANSVNVKLNQDHHLYHHNKPYPSFNNGNLNHASSGTECGVVNASNGYMSSHVYGSMEQDCSMNYNNVGGGWANMDHHYSSAPYNFFDRAKPLFGLEGHQEEEECGGDAYLEHRRTLPLFPMHGEDHINGGSGAIWKYGQSEVRPCASLELRLN
